In article PMC9363494 (2022):

Target: full-length α-synuclein (UniProt P37840 1-140)
Test: NMR; segment 1 (Seg-1)

B1: protein disulfide isomerase (enzyme)
chain: not shown
Kd: 750 µM
